Laboratory results as given in patent US20150344570A1 (published 2015).

T1: FcγRIIa R (human, UniProt P12318 34-217)
T1 construct: extracellular domain; also called FcgRIIa R type; 2aR
T1 sequence (looked up): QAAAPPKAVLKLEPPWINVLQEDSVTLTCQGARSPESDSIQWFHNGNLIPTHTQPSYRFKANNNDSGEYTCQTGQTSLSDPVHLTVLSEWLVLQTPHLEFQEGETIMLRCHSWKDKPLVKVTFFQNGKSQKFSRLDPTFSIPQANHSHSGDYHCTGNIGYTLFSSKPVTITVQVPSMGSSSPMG

B1: GpH7-B3 variant L328_09D/GpL16-k0 (antibody, human IgG1, kappa)
heavy: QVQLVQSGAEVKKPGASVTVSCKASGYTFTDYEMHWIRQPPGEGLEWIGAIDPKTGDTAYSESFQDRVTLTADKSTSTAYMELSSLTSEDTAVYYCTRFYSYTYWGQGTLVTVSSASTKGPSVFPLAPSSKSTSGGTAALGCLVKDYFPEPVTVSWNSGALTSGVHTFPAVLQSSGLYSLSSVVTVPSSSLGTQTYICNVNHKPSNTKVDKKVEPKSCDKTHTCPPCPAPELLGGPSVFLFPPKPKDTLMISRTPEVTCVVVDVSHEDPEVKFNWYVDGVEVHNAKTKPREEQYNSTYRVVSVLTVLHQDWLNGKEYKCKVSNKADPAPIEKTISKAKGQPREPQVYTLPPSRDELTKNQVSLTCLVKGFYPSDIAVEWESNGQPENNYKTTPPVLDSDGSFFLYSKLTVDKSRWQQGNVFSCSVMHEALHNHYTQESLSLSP
light: DIVMTQSPLSLPVTPGEPASISCQASESLVHSNRNTYLHWYLQKPGQSPQLLIYKVSNRFSGVPDRFSGSGSGTDFTLKISRVEAEDVGVYYCSQNTHVPPTFGQGTKVEIERTVAAPSVFIFPPSDEQLKSGTASVVCLLNNFYPREAKVQWKVDNALQSGNSQESVTEQDSKDSTYSLSSTLTLSKADYEKHKVYACEVTHQGLSSPVTKSFNRGEC
notes: also called Ho Ab L328_09D
B2: GpH7-B3 variant L328_10E/GpL16-k0 (antibody, human IgG1, kappa)
heavy: not shown
light: B1 light
notes: also called Ho Ab L328_10E
B3: GpH7-B3 variant L328_13S/GpL16-k0 (antibody, human IgG1, kappa)
heavy: not shown
light: B1 light
notes: also called Ho Ab L328_13S
B4: GpH7-B3 variant L328_14T/GpL16-k0 (antibody, human IgG1, kappa)
heavy: not shown
light: B1 light
notes: also called Ho Ab L328_14T
B5: GpH7-B3 variant N325_03V/GpL16-k0 (antibody, human IgG1, kappa)
heavy: not shown
light: B1 light
notes: also called Ho Ab N325_03V
B6: GpH7-B3 variant N325_06M/GpL16-k0 (antibody, human IgG1, kappa)
heavy: not shown
light: B1 light
notes: also called Ho Ab N325_06M
B7: GpH7-B3 variant N325_07I/GpL16-k0 (antibody, human IgG1, kappa)
heavy: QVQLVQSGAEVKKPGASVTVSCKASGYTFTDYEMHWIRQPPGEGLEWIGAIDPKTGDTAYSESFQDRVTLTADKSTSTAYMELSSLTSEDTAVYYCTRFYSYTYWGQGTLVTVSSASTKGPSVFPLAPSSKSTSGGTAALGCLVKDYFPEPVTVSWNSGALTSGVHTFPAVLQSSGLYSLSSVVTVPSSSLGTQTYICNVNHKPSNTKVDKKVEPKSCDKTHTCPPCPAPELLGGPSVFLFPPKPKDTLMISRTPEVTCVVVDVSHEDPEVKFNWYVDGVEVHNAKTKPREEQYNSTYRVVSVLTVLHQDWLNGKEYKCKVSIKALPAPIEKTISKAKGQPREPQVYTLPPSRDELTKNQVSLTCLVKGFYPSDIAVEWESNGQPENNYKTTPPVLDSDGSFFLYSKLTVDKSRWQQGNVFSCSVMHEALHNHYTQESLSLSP
light: B1 light
notes: also called Ho Ab N325_07I
B8: GpH7-B3 variant N325_08L/GpL16-k0 (antibody, human IgG1, kappa)
heavy: not shown
light: B1 light
notes: also called Ho Ab N325_08L
B9: GpH7-B3 variant N325_09D/GpL16-k0 (antibody, human IgG1, kappa)
heavy: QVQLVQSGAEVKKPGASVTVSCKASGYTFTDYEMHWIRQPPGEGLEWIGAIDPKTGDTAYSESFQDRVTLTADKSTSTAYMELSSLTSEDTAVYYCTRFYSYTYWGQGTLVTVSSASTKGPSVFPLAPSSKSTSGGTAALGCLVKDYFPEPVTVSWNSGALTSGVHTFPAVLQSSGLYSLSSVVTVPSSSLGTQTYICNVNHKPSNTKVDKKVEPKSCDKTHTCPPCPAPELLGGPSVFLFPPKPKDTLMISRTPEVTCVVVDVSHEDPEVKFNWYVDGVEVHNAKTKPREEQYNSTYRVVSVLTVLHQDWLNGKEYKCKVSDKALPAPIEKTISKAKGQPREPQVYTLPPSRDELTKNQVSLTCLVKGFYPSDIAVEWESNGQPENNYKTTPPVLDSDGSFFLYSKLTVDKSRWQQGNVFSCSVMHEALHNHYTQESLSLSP
light: B1 light
notes: also called Ho Ab N325_09D
B10: GpH7-B3 variant N325_10E/GpL16-k0 (antibody, human IgG1, kappa)
heavy: not shown
light: B1 light
notes: also called Ho Ab N325_10E
B11: GpH7-B3 variant N325_13S/GpL16-k0 (antibody, human IgG1, kappa)
heavy: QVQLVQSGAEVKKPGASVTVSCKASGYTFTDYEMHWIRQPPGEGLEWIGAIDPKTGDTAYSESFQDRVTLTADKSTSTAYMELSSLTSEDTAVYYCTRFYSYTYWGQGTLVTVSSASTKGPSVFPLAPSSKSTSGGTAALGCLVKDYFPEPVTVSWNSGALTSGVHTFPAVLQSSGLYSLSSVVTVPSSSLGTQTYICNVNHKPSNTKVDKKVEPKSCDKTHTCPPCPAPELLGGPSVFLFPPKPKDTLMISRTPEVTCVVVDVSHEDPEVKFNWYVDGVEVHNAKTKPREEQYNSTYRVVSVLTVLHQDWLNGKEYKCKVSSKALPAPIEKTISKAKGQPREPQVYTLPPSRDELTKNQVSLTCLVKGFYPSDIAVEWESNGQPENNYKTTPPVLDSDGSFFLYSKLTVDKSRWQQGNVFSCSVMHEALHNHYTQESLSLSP
light: B1 light
notes: also called Ho Ab N325_13S
B12: GpH7-B3 variant N325_14T/GpL16-k0 (antibody, human IgG1, kappa)
heavy: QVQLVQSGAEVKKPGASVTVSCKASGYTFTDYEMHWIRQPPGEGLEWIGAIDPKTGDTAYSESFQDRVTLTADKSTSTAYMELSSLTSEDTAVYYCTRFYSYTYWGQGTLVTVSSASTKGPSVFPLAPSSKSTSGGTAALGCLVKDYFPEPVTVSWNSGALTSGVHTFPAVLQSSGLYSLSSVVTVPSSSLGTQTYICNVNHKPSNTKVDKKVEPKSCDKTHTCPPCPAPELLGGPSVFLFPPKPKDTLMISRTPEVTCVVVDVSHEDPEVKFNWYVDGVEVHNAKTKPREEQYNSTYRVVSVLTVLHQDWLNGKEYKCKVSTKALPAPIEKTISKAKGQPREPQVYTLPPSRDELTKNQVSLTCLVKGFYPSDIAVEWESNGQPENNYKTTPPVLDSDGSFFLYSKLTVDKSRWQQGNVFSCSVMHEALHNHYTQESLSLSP
light: B1 light
notes: also called Ho Ab N325_14T
B13: GpH7-B3 variant N325_15Y/GpL16-k0 (antibody, human IgG1, kappa)
heavy: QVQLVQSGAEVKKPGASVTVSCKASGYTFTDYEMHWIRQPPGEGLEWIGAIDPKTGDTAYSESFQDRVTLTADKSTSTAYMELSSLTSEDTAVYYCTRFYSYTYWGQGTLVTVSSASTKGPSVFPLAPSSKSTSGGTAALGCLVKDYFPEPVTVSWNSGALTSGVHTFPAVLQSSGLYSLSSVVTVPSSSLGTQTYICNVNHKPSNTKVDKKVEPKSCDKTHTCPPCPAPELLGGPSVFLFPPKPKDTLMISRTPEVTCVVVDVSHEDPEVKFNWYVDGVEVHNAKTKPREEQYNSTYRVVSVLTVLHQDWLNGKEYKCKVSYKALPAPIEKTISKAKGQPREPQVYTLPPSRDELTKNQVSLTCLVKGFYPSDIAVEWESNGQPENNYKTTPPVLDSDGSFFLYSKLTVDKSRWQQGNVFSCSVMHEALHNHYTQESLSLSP
light: B1 light
notes: also called Ho Ab N325_15Y
B14: GpH7-B3 variant N325_20W/GpL16-k0 (antibody, human IgG1, kappa)
heavy: not shown
light: B1 light
notes: also called Ho Ab N325_20W
B15: GpH7-B3 variant P238_03V/GpL16-k0 (antibody, human IgG1, kappa)
heavy: not shown
light: B1 light
notes: also called Ho Ab P238_03V
B16: GpH7-B3 variant P238_04F/GpL16-k0 (antibody, human IgG1, kappa)
heavy: not shown
light: B1 light
notes: also called Ho Ab P238_04F
B17: GpH7-B3 variant P238_06M/GpL16-k0 (antibody, human IgG1, kappa)
heavy: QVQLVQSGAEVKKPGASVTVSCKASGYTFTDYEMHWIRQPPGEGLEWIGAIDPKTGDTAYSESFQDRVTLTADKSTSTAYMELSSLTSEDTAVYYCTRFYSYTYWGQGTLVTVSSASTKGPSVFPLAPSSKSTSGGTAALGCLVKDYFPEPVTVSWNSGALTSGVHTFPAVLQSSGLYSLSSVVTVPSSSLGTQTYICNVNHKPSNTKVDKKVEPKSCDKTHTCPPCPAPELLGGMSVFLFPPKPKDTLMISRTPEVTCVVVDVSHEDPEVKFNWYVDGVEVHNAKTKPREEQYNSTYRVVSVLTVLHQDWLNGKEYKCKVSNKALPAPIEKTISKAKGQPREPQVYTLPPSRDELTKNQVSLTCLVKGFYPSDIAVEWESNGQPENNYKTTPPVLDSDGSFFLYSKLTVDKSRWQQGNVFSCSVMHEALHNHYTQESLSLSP
light: B1 light
notes: also called Ho Ab P238_06M
B18: GpH7-B3 variant P238_09D/GpL16-k0 (antibody, human IgG1, kappa)
heavy: not shown
light: B1 light
notes: also called Ho Ab P238_09D
B19: GpH7-B3 variant P238_10E/GpL16-k0 (antibody, human IgG1, kappa)
heavy: not shown
light: B1 light
notes: also called Ho Ab P238_10E
B20: GpH7-B3 variant P238_15Y/GpL16-k0 (antibody, human IgG1, kappa)
heavy: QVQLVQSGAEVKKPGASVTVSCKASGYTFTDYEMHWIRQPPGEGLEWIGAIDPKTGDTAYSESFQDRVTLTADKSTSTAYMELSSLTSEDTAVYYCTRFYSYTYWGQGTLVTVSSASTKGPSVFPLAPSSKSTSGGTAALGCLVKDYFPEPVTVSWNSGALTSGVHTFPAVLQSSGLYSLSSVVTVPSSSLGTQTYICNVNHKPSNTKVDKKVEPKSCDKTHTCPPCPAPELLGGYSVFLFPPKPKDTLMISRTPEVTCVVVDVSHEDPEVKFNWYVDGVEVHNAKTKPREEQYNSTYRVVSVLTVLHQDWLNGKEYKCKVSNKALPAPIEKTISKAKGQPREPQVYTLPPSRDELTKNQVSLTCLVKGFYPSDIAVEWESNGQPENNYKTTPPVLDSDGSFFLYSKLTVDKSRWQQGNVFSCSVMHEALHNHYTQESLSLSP
light: B1 light
notes: also called Ho Ab P238_15Y
B21: GpH7-B3 variant P238_16H/GpL16-k0 (antibody, human IgG1, kappa)
heavy: not shown
light: B1 light
notes: also called Ho Ab P238_16H
B22: GpH7-B3 variant P238_19Q/GpL16-k0 (antibody, human IgG1, kappa)
heavy: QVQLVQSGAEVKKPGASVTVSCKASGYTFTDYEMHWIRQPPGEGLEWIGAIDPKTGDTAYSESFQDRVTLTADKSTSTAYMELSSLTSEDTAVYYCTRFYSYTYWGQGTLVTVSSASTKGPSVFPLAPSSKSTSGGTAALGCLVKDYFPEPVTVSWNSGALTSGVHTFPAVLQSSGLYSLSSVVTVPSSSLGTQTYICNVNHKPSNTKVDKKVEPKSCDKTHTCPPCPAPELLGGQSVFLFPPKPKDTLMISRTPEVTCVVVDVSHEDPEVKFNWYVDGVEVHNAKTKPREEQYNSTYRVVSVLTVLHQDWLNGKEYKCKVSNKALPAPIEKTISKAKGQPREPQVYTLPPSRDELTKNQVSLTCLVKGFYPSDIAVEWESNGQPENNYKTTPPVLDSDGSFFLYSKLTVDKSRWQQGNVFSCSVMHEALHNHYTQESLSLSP
light: B1 light
notes: also called Ho Ab P238_19Q
B23: GpH7-B3 variant P238_20W/GpL16-k0 (antibody, human IgG1, kappa)
heavy: not shown
light: B1 light
notes: also called Ho Ab P238_20W
B24: GpH7-B3 variant P271_08L/GpL16-k0 (antibody, human IgG1, kappa)
heavy: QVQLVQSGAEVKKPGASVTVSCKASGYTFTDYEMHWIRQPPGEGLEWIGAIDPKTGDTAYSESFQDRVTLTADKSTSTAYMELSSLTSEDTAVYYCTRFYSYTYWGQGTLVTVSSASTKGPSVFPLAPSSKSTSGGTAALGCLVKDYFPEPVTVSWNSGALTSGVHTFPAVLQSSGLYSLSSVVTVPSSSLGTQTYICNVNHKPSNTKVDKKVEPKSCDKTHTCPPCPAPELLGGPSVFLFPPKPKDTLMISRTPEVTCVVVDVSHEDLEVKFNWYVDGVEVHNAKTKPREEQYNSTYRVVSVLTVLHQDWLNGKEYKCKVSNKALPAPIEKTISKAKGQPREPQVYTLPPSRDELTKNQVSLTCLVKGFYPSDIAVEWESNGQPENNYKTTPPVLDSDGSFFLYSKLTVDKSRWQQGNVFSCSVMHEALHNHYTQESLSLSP
light: B1 light
notes: also called Ho Ab P271_08L
B25: GpH7-B3 variant P271_09D/GpL16-k0 (antibody, human IgG1, kappa)
heavy: not shown
light: B1 light
notes: also called Ho Ab P271_09D
B26: GpH7-B3 variant P271_10E/GpL16-k0 (antibody, human IgG1, kappa)
heavy: not shown
light: B1 light
notes: also called Ho Ab P271_10E
B27: GpH7-B3 variant P331_02A/GpL16-k0 (antibody, human IgG1, kappa)
heavy: not shown
light: B1 light
notes: also called Ho Ab P331_02A
B28: GpH7-B3 variant P331_03V/GpL16-k0 (antibody, human IgG1, kappa)
heavy: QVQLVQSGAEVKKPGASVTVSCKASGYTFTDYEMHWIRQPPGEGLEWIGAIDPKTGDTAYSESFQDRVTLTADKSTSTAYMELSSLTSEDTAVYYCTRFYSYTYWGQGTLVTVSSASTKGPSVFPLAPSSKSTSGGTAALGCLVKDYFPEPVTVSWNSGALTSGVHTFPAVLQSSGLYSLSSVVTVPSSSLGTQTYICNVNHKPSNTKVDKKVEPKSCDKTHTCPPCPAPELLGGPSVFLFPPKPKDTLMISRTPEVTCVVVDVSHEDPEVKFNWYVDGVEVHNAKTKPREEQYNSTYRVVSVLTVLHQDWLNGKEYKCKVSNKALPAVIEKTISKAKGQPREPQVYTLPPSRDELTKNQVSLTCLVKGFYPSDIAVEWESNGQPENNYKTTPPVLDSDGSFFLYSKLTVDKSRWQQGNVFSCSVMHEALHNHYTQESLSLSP
light: B1 light
notes: also called Ho Ab P331_03V

Biological target: T1, FcγRIIa R
Assay: SPR (Biacore), captured antibody, FcγR as analyte; relative binding activity
Method: Analysis of interaction between objective antibody and the FcγR was carried out using Biacore T100 (GE Healthcare). HBS-EP+ (GE Healthcare) was used as the running buffer, and the measurement temperature was set to 25° C. Chips produced by immobilizing the antigen peptide by the amine coupling method to a Series S Sencor Chip CM5 (GE Healthcare), or alternatively, chips produced by allowing preliminarily biotinylated antigen peptides to interact with and immobilize onto a Series S Sensor Chip SA (certified) (GE Healthcare) were used. Antibodies of interest were captured onto an antigen peptide-immobilized chip, and allowed to interact to each FcγR diluted with running buffer. To regenerate and repeatedly use the chip, the antibodies captured on the chip were washed off by reacting 10 mM glycine-HCl, pH 1.5.

Binder	Ho/Con_2aR
B1	68.8 % (GpH7-B3/GpL16-k0 = 100)
B2	48.1 % (GpH7-B3/GpL16-k0 = 100)
B3	108 % (GpH7-B3/GpL16-k0 = 100)
B4	118 % (GpH7-B3/GpL16-k0 = 100)
B5	37.8 % (GpH7-B3/GpL16-k0 = 100)
B6	124 % (GpH7-B3/GpL16-k0 = 100)
B7	77 % (GpH7-B3/GpL16-k0 = 100)
B8	95 % (GpH7-B3/GpL16-k0 = 100)
B9	74.8 % (GpH7-B3/GpL16-k0 = 100)
B10	49.9 % (GpH7-B3/GpL16-k0 = 100)
B11	126 % (GpH7-B3/GpL16-k0 = 100)
B12	60.2 % (GpH7-B3/GpL16-k0 = 100)
B13	42.6 % (GpH7-B3/GpL16-k0 = 100)
B14	56 % (GpH7-B3/GpL16-k0 = 100)
B15	116 % (GpH7-B3/GpL16-k0 = 100)
B16	146 % (GpH7-B3/GpL16-k0 = 100)
B17	88.9 % (GpH7-B3/GpL16-k0 = 100)
B18	13 % (GpH7-B3/GpL16-k0 = 100)
B19	21.4 % (GpH7-B3/GpL16-k0 = 100)
B20	95.9 % (GpH7-B3/GpL16-k0 = 100)
B21	25.5 % (GpH7-B3/GpL16-k0 = 100)
B22	19.4 % (GpH7-B3/GpL16-k0 = 100)
B23	25.7 % (GpH7-B3/GpL16-k0 = 100)
B24	102 % (GpH7-B3/GpL16-k0 = 100)
B25	92.4 % (GpH7-B3/GpL16-k0 = 100)
B26	88.8 % (GpH7-B3/GpL16-k0 = 100)
B27	102 % (GpH7-B3/GpL16-k0 = 100)
B28	89.1 % (GpH7-B3/GpL16-k0 = 100)
